From PMC9482650, “Quantitative fragmentomics allow affinity mapping of interactomes” (Nature Communications, 2022)

T1: ARHGAP21, Q5T5U3
T1 sequence (Q5T5U3 45-169, limits assumed, looked up): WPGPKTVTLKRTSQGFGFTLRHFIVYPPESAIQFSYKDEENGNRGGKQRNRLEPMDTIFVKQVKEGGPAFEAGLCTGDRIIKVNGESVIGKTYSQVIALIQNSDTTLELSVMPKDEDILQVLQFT

T2: DLG3_2, Q92796
T2 sequence (Q92796 221-321, limits assumed, looked up): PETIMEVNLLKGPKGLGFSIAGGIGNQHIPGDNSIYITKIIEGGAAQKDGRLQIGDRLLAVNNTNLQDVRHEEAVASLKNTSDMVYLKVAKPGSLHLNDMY

T3: GRIP1_4, Q9Y3R0
T3 sequence (Q9Y3R0 467-571, limits assumed, looked up): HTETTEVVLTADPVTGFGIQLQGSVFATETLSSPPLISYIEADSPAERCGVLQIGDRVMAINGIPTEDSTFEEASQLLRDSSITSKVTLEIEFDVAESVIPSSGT

T4: GRIP1_5, Q9Y3R0
T4 sequence (Q9Y3R0 568-668, limits assumed, looked up): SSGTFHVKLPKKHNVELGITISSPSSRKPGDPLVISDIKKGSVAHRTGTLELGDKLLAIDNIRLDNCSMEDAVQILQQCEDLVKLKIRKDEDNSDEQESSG

T5: HTRA3, P83110
T5 sequence (P83110 354-453, limits assumed, looked up): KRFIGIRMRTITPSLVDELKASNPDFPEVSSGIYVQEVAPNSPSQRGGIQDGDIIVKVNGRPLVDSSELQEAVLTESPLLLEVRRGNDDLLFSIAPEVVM

T6: LIN7B, Q9HAP6
T6 sequence (Q9HAP6 88-185, limits assumed, looked up): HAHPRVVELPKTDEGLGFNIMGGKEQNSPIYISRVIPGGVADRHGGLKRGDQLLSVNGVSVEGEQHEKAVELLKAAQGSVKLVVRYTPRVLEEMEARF

T7: LNX2_2, Q8N448
T7 sequence (Q8N448 334-432, limits assumed, looked up): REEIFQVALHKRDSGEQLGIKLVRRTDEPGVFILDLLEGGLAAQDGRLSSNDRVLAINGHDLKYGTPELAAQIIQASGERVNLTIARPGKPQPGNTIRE

T8: LNX2_3, Q8N448
T8 sequence (Q8N448 463-564, limits assumed, looked up): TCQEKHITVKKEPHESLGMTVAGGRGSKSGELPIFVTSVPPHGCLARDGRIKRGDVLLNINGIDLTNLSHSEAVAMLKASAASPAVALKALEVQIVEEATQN

T9: MPP2, Q14168
T9 sequence (Q14168 180-250, limits assumed, looked up): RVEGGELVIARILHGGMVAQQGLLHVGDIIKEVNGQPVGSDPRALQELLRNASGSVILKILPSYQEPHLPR

T10: NHERF3_1, Q5T2W1
T10 sequence (Q5T2W1 4-100, limits assumed, looked up): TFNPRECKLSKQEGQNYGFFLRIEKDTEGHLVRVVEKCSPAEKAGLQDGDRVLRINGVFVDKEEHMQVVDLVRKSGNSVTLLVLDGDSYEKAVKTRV

T11: RADIL, Q96JH8
T11 sequence (Q96JH8 971-1071, limits assumed, looked up): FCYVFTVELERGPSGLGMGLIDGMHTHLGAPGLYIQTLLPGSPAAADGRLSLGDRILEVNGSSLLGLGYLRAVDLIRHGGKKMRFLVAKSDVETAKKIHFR

T12: TIAM2, Q8IVF5
T12 sequence (Q8IVF5 885-986, limits assumed, looked up): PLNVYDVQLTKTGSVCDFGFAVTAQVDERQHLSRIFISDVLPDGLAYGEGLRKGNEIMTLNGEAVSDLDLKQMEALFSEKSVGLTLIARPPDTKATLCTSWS


How the values were obtained:
Assay in all cases: holdup assay
Parameters in all cases: key: below the threshold = too weak to quantify, mostly under pKd 3.1 to 4
Conditions in all cases: plain residues with an end cap or a label only (N-terminal biotin on a linker: ado-ado)
[1] = target: T1, ARHGAP21, Q5T5U3
[2] = target: DLG1_1, Q12959
[3] = target: T2, DLG3_2, Q92796
[4] = target: FRMPD4, Q14CM0
Sequence of FRMPD4, Q14CM0 (Q14CM0 67-160): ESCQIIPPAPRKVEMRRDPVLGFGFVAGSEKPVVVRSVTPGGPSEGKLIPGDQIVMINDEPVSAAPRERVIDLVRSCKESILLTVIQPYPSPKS

[5] = target: T3, GRIP1_4, Q9Y3R0
[6] = target: T4, GRIP1_5, Q9Y3R0
[7] = target: GRIP2_5, Q9C0E4
Sequence of GRIP2_5, Q9C0E4 (Q9C0E4 544-642): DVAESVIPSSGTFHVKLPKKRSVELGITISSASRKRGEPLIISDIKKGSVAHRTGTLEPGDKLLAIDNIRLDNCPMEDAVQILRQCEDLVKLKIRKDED

[8] = target: T5, HTRA3, P83110
[9] = target: IL16_3, Q14005
Sequence of IL16_3, Q14005 (Q14005 1107-1207): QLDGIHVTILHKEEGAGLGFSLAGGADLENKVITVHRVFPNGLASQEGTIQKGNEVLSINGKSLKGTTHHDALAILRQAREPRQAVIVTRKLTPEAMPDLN

[10] = target: IL16_4, Q14005
Sequence of IL16_4, Q14005 (Q14005 1229-1329): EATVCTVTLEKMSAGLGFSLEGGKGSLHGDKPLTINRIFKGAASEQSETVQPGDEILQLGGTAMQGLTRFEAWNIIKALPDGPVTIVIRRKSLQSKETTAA

[11] = target: Inadl_2, Q8NI35
Sequence of Inadl_2, Q8NI35 (Q8NI35 238-335): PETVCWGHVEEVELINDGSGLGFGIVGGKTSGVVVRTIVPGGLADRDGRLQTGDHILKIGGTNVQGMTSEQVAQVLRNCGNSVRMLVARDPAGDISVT

[12] = target: LAP2, Q96RT1
Sequence of LAP2, Q96RT1 (Q96RT1 other isoform, or with tags, fused parts or gaps): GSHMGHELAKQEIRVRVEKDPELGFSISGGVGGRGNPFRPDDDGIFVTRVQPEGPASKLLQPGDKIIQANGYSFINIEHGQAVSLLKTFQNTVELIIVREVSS

[13] = target: T6, LIN7B, Q9HAP6
[14] = target: T7, LNX2_2, Q8N448
[15] = target: T8, LNX2_3, Q8N448
[16] = target: MAGI2_2, Q86UL8
Sequence of MAGI2_2, Q86UL8 (Q86UL8 410-522): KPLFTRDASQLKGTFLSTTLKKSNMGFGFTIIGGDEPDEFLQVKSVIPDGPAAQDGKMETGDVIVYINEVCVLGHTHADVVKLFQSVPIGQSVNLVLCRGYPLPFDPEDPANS

[17] = target: MAST2, Q6P0Q8
Sequence of MAST2, Q6P0Q8 (Q6P0Q8 1099-1202): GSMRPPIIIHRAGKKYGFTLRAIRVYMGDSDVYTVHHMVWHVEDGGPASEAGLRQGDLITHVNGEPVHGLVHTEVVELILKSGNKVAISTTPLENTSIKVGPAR

[18] = target: T9, MPP2, Q14168
[19] = target: T10, NHERF3_1, Q5T2W1
[20] = target: NOS1, P29475
Sequence of NOS1, P29475 (P29475 9-101): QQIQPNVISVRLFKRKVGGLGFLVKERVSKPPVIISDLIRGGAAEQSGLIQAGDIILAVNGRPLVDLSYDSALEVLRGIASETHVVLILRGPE

[21] = target: PARD3_3, Q8TEW0
Sequence of PARD3_3, Q8TEW0 (Q8TEW0 582-685): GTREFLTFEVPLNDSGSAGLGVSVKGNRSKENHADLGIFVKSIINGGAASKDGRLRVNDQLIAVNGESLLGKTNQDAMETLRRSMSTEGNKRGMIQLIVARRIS

[22] = target: T11, RADIL, Q96JH8
[23] = target: SNX27, Q96L92
[24] = target: T12, TIAM2, Q8IVF5
[25] = target: TJP2_1, Q9UDY2
Sequence of TJP2_1, Q9UDY2 (Q9UDY2 24-128): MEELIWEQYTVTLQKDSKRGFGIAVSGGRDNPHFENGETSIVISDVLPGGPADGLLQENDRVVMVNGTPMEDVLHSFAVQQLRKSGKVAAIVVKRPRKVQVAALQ

| Binder | pKd [1] | pKd [2] | pKd [3] | pKd [4] | pKd [5] | pKd [6] | pKd [7] | pKd [8] | pKd [9] | pKd [10] | pKd [11] | pKd [12] | pKd [13] | pKd [14] | pKd [15] | pKd [16] | pKd [17] | pKd [18] | pKd [19] | pKd [20] | further results |
| --- | --- | --- | --- | --- | --- | --- | --- | --- | --- | --- | --- | --- | --- | --- | --- | --- | --- | --- | --- | --- | --- |
| PPYRHRNTVV [ERBB4, Q15303] | 4.08 | 4.83 | 4.79 | below the threshold | below the threshold | below the threshold | below the threshold | below the threshold | below the threshold | below the threshold | below the threshold | below the threshold | below the threshold | 4.69 | below the threshold | 4.6 | 4.48 | below the threshold | below the threshold | 3.64 | pKd [21]: below the threshold; pKd [22]: 4.21; pKd [23]: 4.42; pKd [24]: below the threshold; pKd [25]: 3.81 |
| RRISSLESEV [GRIN2C, Q14957] | below the threshold | 4.86 | 5.27 | below the threshold | below the threshold | below the threshold | below the threshold | below the threshold | below the threshold | below the threshold | below the threshold | 4.46 | 4.12 | below the threshold | below the threshold | 4.58 | 5.07 | below the threshold | 3.82 | 3.96 | pKd [21]: below the threshold; pKd [22]: below the threshold; pKd [23]: 4.97; pKd [24]: 4.13; pKd [25]: below the threshold |
| GSGAVEMESV [AQP6, Q13520] | 3.91 | below the threshold | below the threshold | below the threshold | below the threshold | below the threshold | below the threshold | below the threshold | below the threshold | below the threshold | below the threshold | below the threshold | below the threshold | 3.49 | below the threshold | below the threshold | 4.03 | below the threshold | below the threshold | below the threshold | pKd [21]: below the threshold; pKd [22]: 3.56; pKd [23]: 3.7; pKd [24]: below the threshold; pKd [25]: below the threshold |
| IKAIVDLTGL [TRAF2, Q12933] | 3.74 | below the threshold | below the threshold | 3.7 | below the threshold | below the threshold | below the threshold | below the threshold | below the threshold | below the threshold | below the threshold | below the threshold | below the threshold | below the threshold | below the threshold | below the threshold | 5.48 | below the threshold | 4.56 | below the threshold | pKd [21]: below the threshold; pKd [22]: below the threshold; pKd [23]: 3.51; pKd [24]: below the threshold; pKd [25]: below the threshold |
| SARSRLSSNL [HCN2, Q9UL51] | 4.37 | below the threshold | below the threshold | 3.5 | below the threshold | below the threshold | below the threshold | below the threshold | below the threshold | below the threshold | below the threshold | below the threshold | below the threshold | below the threshold | below the threshold | 3.71 | 5.4 | below the threshold | 4.72 | below the threshold | pKd [21]: below the threshold; pKd [22]: below the threshold; pKd [23]: 4.3; pKd [24]: below the threshold; pKd [25]: below the threshold |
| CLREWCDAFL [BANF1, O75531] | 4.41 | below the threshold | 4.15 | 4.72 | below the threshold | below the threshold | below the threshold | 4.17 | below the threshold | below the threshold | below the threshold | 3.69 | 3.94 | below the threshold | below the threshold | below the threshold | 5.52 | below the threshold | 4.78 | below the threshold | pKd [21]: 4.43; pKd [22]: 3.85; pKd [23]: 4.58; pKd [24]: 4.05; pKd [25]: below the threshold |
